Measurements from patent US20260184814A1, “BROADLY NE[…] INFLUENZA NEURAMINIDASE” (priority 2022, published 2026).
Residue numbers refer to the chain shown, from its start.

B1: FNI9-v4.1 (antibody, V domains shown)
VH: QVHLVQSGAEVKEPGSSVTVSCKASGGSFSNQAISWVRQAPGQGLEWMGGIFPISGTPTSAQRFQGRVTFTADESTTTVYMDLSSLRSDDTAVYYCARAGSDYFNRDLGWENYYFASWGQGTLVTVSS
VL: EIVMTQSPATLSLSSGERATLSCRASRSVSSNLAWYQQKPGQAPRLLIYDASTRATGFSARFAGSGSGTEFTLTISSLQSEDSAIYYCQQYNNWPPWTFGQGTKVEIK
B2: Fab FNI9-v8.1 (Fab, V domains shown)
VH: B1 VH with S28T, S30N
VL: B1 VL
B3: FNI9-v8.1 (antibody, V domains shown)
VH: B1 VH with S28T, S30N
VL: B1 VL
B4: Fab FNI9-v4.1 (Fab, V domains shown)
VH: B1 VH
VL: B1 VL
B5: FNI9-v9.1 (antibody, V domains shown)
VH: B1 VH with S30N, P58A, F70I
VL: B1 VL

Legend:
[1] = biological target: N2 A/Tanzania/205/2010 (82-469) S245N S247T (Influenza A virus); assay: SPR (Biacore), NA on anti-Avi chip, 1:1 model; NA code NA-19 (+glyc245)
[2] = biological target: N2 A/South_Australia/34/2019 (82-469) N245S (Influenza A virus); assay: SPR (Biacore), NA on anti-Avi chip, 1:1 model; NA code NA-24 (-glyc245)
[3] = biological target: N2 A/South_Australia/34/2019 (82-469) N245S (Influenza A virus); assay: SPR; NA-24; parameters: unit not given beside the values
[4] = biological target: N2 A/Tanzania/205/2010 (82-469) S245N S247T (Influenza A virus); assay: SPR; NA-19; parameters: unit not given beside the values
[5] = biological target: N2 A/Hong_Kong/2671/2019 (82-469) N245S (Influenza A virus); assay: SPR, 1:1 binding; NA-25 "-glyc245"
[6] = biological target: N2 A/Tanzania/205/2010 (82-469) S245N S247T (Influenza A virus); assay: SPR, 1:1 binding; NA-19 "+glyc245"
[7] = biological target: N2 A/Hong_Kong/2671/2019 (82-469) N245S (Influenza A virus); assay: SPR; NA-25; parameters: unit not given beside the values
[8] = biological target: N2 A/South_Australia/34/2019 (82-469) N245S (Influenza A virus); assay: SPR, 1:1 binding; NA-24 "-glyc245"

Binder | fold-change in affinity compared to FNI9-v1.1 [1] | fold-change in affinity compared to FNI9-v1.1 [2] | KD compared to v1.1 [3] | KD compared to v1.1 [4] | Kd [5] | Kd [6] | KD compared to v1.1 [7] | Kd [8]
B1 | 2.47 | 1.53 |  |  |  |  |  | 
B2 |  |  | 0.82 | 0.57 | 0.49 nM | 3.83 nM | 0.7 | 11.2 nM
B3 | 1.12 | 0.42 |  |  |  |  |  | 
B4 |  |  | 1.66 | 1.23 | 1.07 nM | 8.31 nM | 1.53 | 22.8 nM
B5 | 4.59 | 0.99 |  |  |  |  |  | 
